Results on two molecules are retold here after article PMC3814370, “Functional assignment of KEOPS/EKC complex subunits in the biosynthesis of the universal t^6A tRNA modification” (Nucleic Acids Research, 2013).

To fix the notation:
B1: Pcc1–Kae1 binary complex from Pyrococcus abyssi (complex)
chain 1: MKPKRVQGKIVIEFPSEDIAEVVYTSVLYEHVSVPYRRSRVNFRREGRRIVLEIEANDSSAMRGTVNSYLRWIKVALDVLNI
chain 2: MLALGIEGTAHTLGIGIVSEDKVLANVFDTLTTEKGGIHPKEAAEHHARLMKPLLRKALSEAGVSLDDIDVIAFSQGPGLGPALRVVATAARALAVKYRKPIVGVNHCIAHVEITKMFGVKDPVGLYVSGGNTQVLALEGGRYRVFGETLDIGIGNAIDVFARELGLGFPGGPKVEKLAEKGEKYIELPYAVKGMDLSFSGLLTEAIRKYRSGKYRVEDLAYSFQETAFAALVEVTERAVAHTEKDEVVLVGGVAANNRLREMLRIMTEDRGIKFFVPPYDLCRDNGAMIAYTGLRMYKAGISFRLEETIVKQKFRTDEVEIVW
notes: Pcc1, Pyrococcus abyssi; Kae1, Pyrococcus abyssi; Written as the unit of one Pcc1 and one Kae1 (predicted 45 kDa); Its dimerisation is a row of the complex with itself; also called PK; Kae1–Pcc1; source: E. coli Rosetta2 (DE3) pLysS, co-expressed, purified (heat 65°C, Ni-NTA, Superdex 200)

Data set [1] concerns the molecule itself. The experiment in a line: SEC; gel filtration of purified proteins and complexes on Superdex 200 in storage buffer (LBs); apparent molecular mass (Supplementary Figure S2). For orientation: Size exclusion chromatography separates by hydrodynamic size, large species first.
The target of data set [2] is B1. The experiment in a line: cell-based or functional assay.

In the case of B1, the stoichiometry N (usually the number of molecules, sites or subunits per partner or assembly) in data set [1] is 2.

B2: Bud32–Cgi121 binary complex from Pyrococcus abyssi (complex)
chain 1: MKLIKQGAEAKIYLAEFSELYFDYPIKVIVKERIKKRYRIPEIDLKLRKERTIREARILRRAKEFGVNVPYVFEVDTKNMIIVMEYIEGERLKELLEKLPMEERLKVCREVGRQIGKLHEAGIVHGDLTTSNMILREGKVYFIDFGLAEFDDTIEAQGVDLHLLKRAMESTHYKWFERGFEEVLKGYIEIRGEDKGREIREKIREIELRGRYRERSWITQ
chain 2: MTPKFKNFKHDNSGQVETYLFEVISKYTMLEIKTKFGKLCIAKVKLASESIERALNLCNDNCQIVSAKCHEEVIFATILAIKAFSSGRNTAKTIKGEILLRLAGVKQIKDAIKIIGARKGENLIIYFGVSDPCSSLKDFISSLGLREEPLKPCDEDEVKRGFERAAIIEAL
Turning to B2, the “t^6A synthesis (14C-L-threonine incorporated into tRNA) by an equimolar mix of the two binary complexes, relative to PaKEOPS” value in data set [2] is roughly 80%.
